Publication PMC10702835, “Recognition of centromere‐specific histone Cse4 by the inner kinetochore Okp1‐Ame1 complex” (EMBO Reports, 2023)
Where no end group is shown, it is not given here.

What was measured:
Okp1‐Ame1 = assay: GST pulldown, Okp1-Ame1; type: binding, Saccharomyces cerevisiae; conditions: glutathione agarose, 4°C, 1 h, 20 mM Tris, pH 8.5, 200 mM NaCl, 1 mM TCEP; SDS-PAGE
Experimental: (§1) Figure 3 Biochemical investigation of Okp1‐Ame1‐Cse4^END binding and disruptive point mutations • A GST pulldown assay for Cse4 binding. The indicated COMA complex proteins were tested for their association with immobilized GST‐Cse4^END. • B Fluorescence polarization assay for quantification of Cse4 binding affinities (n = 3 independent replicates). FITC‐labeled Cse4^END peptide was incubated with increasing concentrations of the indicated protein complexes. See also Table 1. • C, D GST pulldown assays as in panel A. Cse4^END and its mutants (L41D, L42D, or L41,42A) were tested in panel C. The indicated Okp1‐Ame1 complexes were tested for their association with GST‐Cse4^END in panel D. Source data are available online for this figure.
(§2) GST‐Cse4^28‐60 was mixed with Okp1‐Ame1, COMA, COMA‐Nkp1‐Nkp2, or Okp1^125‐275 – Ame1^124‐231 and the mixed samples were incubated with glutathione agarose resin at 4°C for 1 h in binding buffer containing 20 mM Tris, pH 8.5, 200 mM NaCl and 1 mM TCEP. Resin was washed at least three times with the same buffer to remove unbound protein, and bound protein then eluted with glutathione. Samples of input and eluate were collected for analysis by SDS–PAGE.

COMA complex = assay: GST pulldown, COMA; type: binding, Saccharomyces cerevisiae; conditions: glutathione agarose, 4°C, 1 h, 20 mM Tris, pH 8.5, 200 mM NaCl, 1 mM TCEP; compared with COMA-Nkp1-Nkp2
Experimental: as §1, §2

COMA‐Nkp1‐Nkp2 complex = assay: GST pulldown, COMA-Nkp1-Nkp2; type: binding, Saccharomyces cerevisiae; conditions: glutathione agarose, 4°C, 1 h, 20 mM Tris, pH 8.5, 200 mM NaCl, 1 mM TCEP; compared with COMA
Experimental: as §1, §2

[1] = test system: minimal Okp1‐Ame1 complex (Okp1^125‐275‐Ame1^124‐231); assay: GST pulldown, minimal Okp1-Ame1; type: binding, Saccharomyces cerevisiae; conditions: glutathione agarose, 4°C, 1 h, 20 mM Tris, pH 8.5, 200 mM NaCl, 1 mM TCEP
Experimental: Figure EV3 Further biochemical characterization of the Okp1‐Ame1‐Cse4^END interaction • Pulldown assay showing binding between the truncated Okp1‐Ame1 complex used for crystallography (Okp1^125‐275l‐Ame1^124‐231) and GST‐Cse4^END. • Recombinant proteins used for pulldowns in Fig 3 were tested for their association with GST to determine the level of non‐specific binding. Results of a GST pulldown assay are shown. • The minimal Okp1‐Ame1 complex used for crystallography was tested for its association with FITC‐Cse4^END in a fluorescence polarization experiment. The measured dissociation constant is ~750 nM (see Materials and Methods; n = 3 independent experiments). • GST‐Cse4^END and its mutants were tested for Okp1‐Ame1 binding. • Full‐length mutant Okp1‐Ame1 complex (EYAA or I195Y as indicated) was tested for its association with FITC‐Cse4^END. • Various Okp1‐Ame1 mutants (indicated above) were tested for binding to GST‐Cse4^END. • Various Okp1‐Ame1 mutants were tested for Cse4^END binding as in panel F. Source data are available online for this figure.
GST‐Cse4^28‐60 was mixed with Okp1‐Ame1, COMA, COMA‐Nkp1‐Nkp2, or Okp1^125‐275 – Ame1^124‐231 and the mixed samples were incubated with glutathione agarose resin at 4°C for 1 h in binding buffer containing 20 mM Tris, pH 8.5, 200 mM NaCl and 1 mM TCEP. […]

[2] = target: T1, Okp1‐Ame1 (WT, full length) with 10 μM Nkp1‐Nkp2 (S. cerevisiae (budding yeast), UniProt P53298 1-406; P38313 1-324; Q12493 1-238; Q06162 1-153); assay: fluorescence polarisation; as a2 (20 nM FITC‐Cse4^28‐60, full-length Okp1‐Ame1 titrated, 200 mM NaCl) with 10 μM Nkp1‐Nkp2 added in excess; conditions: both partners purified
T1 construct: Okp1, budding yeast, full length; Ame1, budding yeast, full length; Nkp1, budding yeast, full length; Nkp2, budding yeast, full length; the methods call it a titrated complex (Okp1‐Ame1 with Nkp1/2); also called Okp1‐Ame1 W(T) + 10 μM Nkp1‐Nkp2; Okp1‐Ame1 with Nkp1/2; source: E. coli, purified heterodimers Okp1‐Ame1 and Nkp1‐Nkp2, mixed; copies: + + +

[3] = target: T2, minimal Okp1^125‐275 – Ame1^124‐231 heterodimer (S. cerevisiae (budding yeast), UniProt P53298 125-275; P38313 124-231); assay: fluorescence polarisation; 20 nM FITC‐Cse4^28‐60, truncated Okp1‐Ame1 titrated; 100 mM HEPES pH 7.5, 600 mM NaCl, 1 mM TCEP; 30 min at room temperature; 20 μM points left out of the fit; conditions: both partners purified
T2 construct: Okp1, budding yeast, residues 125-275; Ame1, budding yeast, residues 124-231; no tag; also called truncated Okp1‐Ame1 complex; minimal Okp1‐Ame1 complex used for crystallography; source: E. coli Rosetta 2 (pLysS), pet-Duet co-expression, purified (TALON, TEV cleavage, ion exchange, gel filtration); not shown: His6, N-terminal, cleaved; copies: 1 + 1

[4] = target: T3, Okp1‐Ame1 heterodimer, full length, wild type (S. cerevisiae (budding yeast), UniProt P53298 1-406; P38313 1-324); assay: fluorescence polarisation; 20 nM FITC‐Cse4^28‐60, full-length Okp1‐Ame1 titrated; 100 mM HEPES pH 7.5, 200 mM NaCl, 1 mM TCEP; 30 min at room temperature; one site – total binding fit; triplicate; conditions: both partners purified
T3 construct: Okp1, inner kinetochore (Ctf19c) protein of budding yeast, full length; Ame1, inner kinetochore (Ctf19c) protein of budding yeast, full length; also called Okp1‐Ame1 (WT); FL; copies: 1 + 1

[5] = target: T4, Okp1(EYAA)‐Ame1, full length (S. cerevisiae (budding yeast), UniProt P53298 1-406; P38313 1-324, E235A | Y238A); assay: as above; conditions: both partners purified
T4 construct: Okp1, budding yeast, full length, with E235A and Y238A; Ame1, budding yeast, full length; also called okp1‐E235,Y238A; okp1‐E235A,Y238A; source: recombinant; copies: 1 + 1

[6] = target: T5, Okp1‐Ame1(I195Y), full length (S. cerevisiae (budding yeast), UniProt P53298 1-406; P38313 1-324, I195Y); assay: as above; conditions: both partners purified
T5 construct: Okp1, budding yeast, full length; Ame1, budding yeast, full length, with I195Y; source: recombinant; copies: 1 + 1

Okp1^125‐275 = target: T6, Okp1^125‐275 (S. cerevisiae (budding yeast), UniProt P53298 125-275); assay: crystal structure; Okp1^125‐275 – Ame1^124‐231 mixed with Cse4^28‐60 peptide 1:1.3; hanging drop, 18°C, 19% PEG 8000, 0.55 M lithium sulfate; 1.8 Å, space group P4(2)2(1)2; conditions: both partners purified
T6 construct: Okp1, budding yeast, residues 125-275; Single chain of m2, written for the pairwise contacts of the crystal structure; also called Okp1 (chain of the crystallised minimal heterodimer); source: E. coli Rosetta 2 (pLysS), co-expressed with Ame1^124‐231, purified; not shown: His6, N-terminal, cleaved

[7] = target: T2, minimal Okp1^125‐275 – Ame1^124‐231 …; assay: as above; conditions: both partners purified
Ame1^124‐231 = target: T7, Ame1^124‐231 (S. cerevisiae (budding yeast), UniProt P38313 124-231); assay: as above; conditions: both partners purified
T7 construct: Ame1, budding yeast, residues 124-231; no tag; Single chain of m2, written for the pairwise contacts of the crystal structure; also called Ame1 (chain of the crystallised minimal heterodimer); source: E. coli Rosetta 2 (pLysS), co-expressed with Okp1^125‐275, purified

[8] = target: T3, Okp1‐Ame1 heterodimer, full length, …; assay: pull-down; GST‐Cse4^28‐60 (or GST) mixed with prey, held on glutathione agarose resin, 4°C 1 h, 20 mM Tris pH 8.5, 200 mM NaCl, 1 mM TCEP; eluted with glutathione; SDS–PAGE; conditions: both partners purified
[9] = target: T8, six‐protein COMA‐Nkp1‐Nkp2 complex (S. cerevisiae (budding yeast), UniProt P53298 1-406; P38313 1-324; Q02732 1-369; Q06675 1-368; Q12493 1-238; Q06162 …); assay: as above; conditions: both partners purified
T8 construct: Okp1, budding yeast, full length; Ame1, budding yeast, full length; Ctf19, budding yeast, full length; Mcm21, budding yeast, full length; Nkp1, budding yeast, full length; Nkp2, budding yeast, full length; constructs as in Hinshaw & Harrison 2019; source: E. coli, purified heterodimers Okp1‐Ame1, Ctf19‐Mcm21 and Nkp1‐Nkp2; copies: + + + + +

[10] = target: T2, minimal Okp1^125‐275 – Ame1^124‐231 …; assay: as above; conditions: both partners purified
[11] = target: T9, four‐protein COMA complex (Ctf19‐Okp1‐Mcm21‐Ame1) (S. cerevisiae (budding yeast), UniProt P53298 1-406; P38313 1-324; Q02732 1-369; Q06675 1-368); assay: as above; conditions: both partners purified
T9 construct: Okp1, budding yeast, full length; Ame1, budding yeast, full length; Ctf19, budding yeast, full length; Mcm21, budding yeast, full length; constructs as in Hinshaw & Harrison 2019; source: E. coli, purified heterodimers Okp1‐Ame1 and Ctf19‐Mcm21; copies: + + +
T9 sequence (P53298 whole entry, chain 1 of 4): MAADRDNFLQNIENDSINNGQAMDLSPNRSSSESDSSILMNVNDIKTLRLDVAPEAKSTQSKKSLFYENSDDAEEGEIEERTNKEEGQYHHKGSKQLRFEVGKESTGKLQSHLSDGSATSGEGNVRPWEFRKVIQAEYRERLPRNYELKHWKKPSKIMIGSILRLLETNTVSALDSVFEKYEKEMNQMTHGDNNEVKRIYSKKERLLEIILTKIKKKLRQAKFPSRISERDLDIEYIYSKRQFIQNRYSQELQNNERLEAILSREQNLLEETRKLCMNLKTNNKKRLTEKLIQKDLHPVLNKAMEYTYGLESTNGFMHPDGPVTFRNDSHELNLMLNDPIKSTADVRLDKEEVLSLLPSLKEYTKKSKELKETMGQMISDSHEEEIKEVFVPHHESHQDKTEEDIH
T9 sequence (P38313 whole entry, chain 2 of 4): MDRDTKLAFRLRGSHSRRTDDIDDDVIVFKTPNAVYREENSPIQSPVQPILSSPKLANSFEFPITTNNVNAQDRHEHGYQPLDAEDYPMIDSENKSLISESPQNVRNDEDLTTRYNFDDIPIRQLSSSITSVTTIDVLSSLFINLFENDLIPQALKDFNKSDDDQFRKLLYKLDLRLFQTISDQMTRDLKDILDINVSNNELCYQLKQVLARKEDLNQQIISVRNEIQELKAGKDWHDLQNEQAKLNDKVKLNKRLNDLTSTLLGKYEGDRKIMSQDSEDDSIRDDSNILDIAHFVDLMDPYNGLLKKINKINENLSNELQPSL
T9 sequence (Q02732 whole entry, chain 3 of 4): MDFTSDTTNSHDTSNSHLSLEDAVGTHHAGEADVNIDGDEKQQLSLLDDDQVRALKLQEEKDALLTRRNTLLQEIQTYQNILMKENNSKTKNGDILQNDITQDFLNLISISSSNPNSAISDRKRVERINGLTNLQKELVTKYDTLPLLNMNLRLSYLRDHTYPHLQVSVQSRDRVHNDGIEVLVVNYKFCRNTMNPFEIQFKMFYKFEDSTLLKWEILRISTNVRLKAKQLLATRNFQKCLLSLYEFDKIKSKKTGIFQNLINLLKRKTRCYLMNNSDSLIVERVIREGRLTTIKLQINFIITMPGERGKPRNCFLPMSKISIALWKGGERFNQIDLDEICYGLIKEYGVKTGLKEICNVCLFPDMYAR
T9 sequence (Q06675 whole entry, chain 4 of 4): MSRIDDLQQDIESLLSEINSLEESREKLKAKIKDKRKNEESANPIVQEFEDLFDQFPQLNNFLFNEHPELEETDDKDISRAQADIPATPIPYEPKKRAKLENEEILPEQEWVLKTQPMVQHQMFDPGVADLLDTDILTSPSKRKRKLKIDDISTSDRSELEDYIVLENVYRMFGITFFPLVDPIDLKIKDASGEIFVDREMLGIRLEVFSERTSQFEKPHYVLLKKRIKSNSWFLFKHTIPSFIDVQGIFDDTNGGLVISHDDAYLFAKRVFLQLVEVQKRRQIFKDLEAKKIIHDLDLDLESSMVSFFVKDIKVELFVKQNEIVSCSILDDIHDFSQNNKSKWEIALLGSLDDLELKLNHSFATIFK

T2 sequence (P53298 125-275, chain 1 of 2): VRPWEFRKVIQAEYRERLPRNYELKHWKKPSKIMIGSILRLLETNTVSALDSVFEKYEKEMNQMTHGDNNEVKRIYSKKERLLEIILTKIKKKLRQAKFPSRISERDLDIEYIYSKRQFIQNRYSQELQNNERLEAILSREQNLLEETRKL
T2 sequence (P38313 124-231, chain 2 of 2): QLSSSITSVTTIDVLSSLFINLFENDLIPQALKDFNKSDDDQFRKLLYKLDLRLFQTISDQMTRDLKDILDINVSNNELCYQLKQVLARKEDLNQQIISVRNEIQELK
T3 sequence (P53298 whole entry, chain 1 of 2): as the sequence (P53298 whole entry, chain 1 of 4) above
T3 sequence (P38313 whole entry, chain 2 of 2): as the sequence (P38313 whole entry, chain 2 of 4) above
T7 sequence (P38313 124-231): as the sequence (P38313 124-231, chain 2 of 2) above
T6 sequence (P53298 125-275): as the sequence (P53298 125-275, chain 1 of 2) above
T4 sequence (P53298 whole entry E235A/Y238A, chain 1 of 2): as the sequence (P53298 whole entry, chain 1 of 4) above, with E235A, Y238A counted along it
T4 sequence (P38313 whole entry, chain 2 of 2): as the sequence (P38313 whole entry, chain 2 of 4) above
T1 sequence (P53298 whole entry, chain 1 of 4): as the sequence (P53298 whole entry, chain 1 of 4) above
T1 sequence (P38313 whole entry, chain 2 of 4): as the sequence (P38313 whole entry, chain 2 of 4) above
T1 sequence (Q12493 whole entry, chain 3 of 4): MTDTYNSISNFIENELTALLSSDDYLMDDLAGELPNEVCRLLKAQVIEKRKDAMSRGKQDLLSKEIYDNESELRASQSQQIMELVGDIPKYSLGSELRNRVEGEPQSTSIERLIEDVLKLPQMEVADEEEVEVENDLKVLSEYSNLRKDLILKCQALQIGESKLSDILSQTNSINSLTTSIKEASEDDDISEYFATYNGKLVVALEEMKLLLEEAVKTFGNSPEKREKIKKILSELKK
T1 sequence (Q06162 whole entry, chain 4 of 4): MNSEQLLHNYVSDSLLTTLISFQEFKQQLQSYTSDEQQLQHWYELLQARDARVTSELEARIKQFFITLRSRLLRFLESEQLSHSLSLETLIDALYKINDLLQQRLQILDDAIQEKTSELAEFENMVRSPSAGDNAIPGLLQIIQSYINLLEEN
T5 sequence (P53298 whole entry, chain 1 of 2): as the sequence (P53298 whole entry, chain 1 of 4) above
T5 sequence (P38313 whole entry I195Y, chain 2 of 2): as the sequence (P38313 whole entry, chain 2 of 4) above, with I195Y counted along it

## GST‐Cse4^END: Cse4 residues 28–60 with TEV‐cleavable N‐terminal Glutathione S‐transferase tag (AGDQQSINDRALSLLQRTRATKNLFPRREERRR; not fully specified (N-terminus))
Okp1‐Ame1
  binding in GST pulldown: bound Okp1‐Ame1
COMA complex
  binding in GST pulldown: equally well
COMA‐Nkp1‐Nkp2 complex
  binding in GST pulldown: equally well
[1]
  binding in GST pulldown: preserved GST‐Cse4^END binding

## cse4‐L41,42A: Cse4^END L41,42A mutant, GST fusion (AGDQQSINDRALSAAQRTRATKNLFPRREERRR; not fully specified (N-terminus))
Okp1‐Ame1
  binding in GST pulldown: failed to bind

## cse4‐L41D: Cse4^END L41D mutant, GST fusion (GST-TEV-Cse4^28-60(L41D)) (AGDQQSINDRALSDLQRTRATKNLFPRREERRR; not fully specified (N-terminus))
Okp1‐Ame1
  binding in GST pulldown: failed to bind

## cse4‐L42D: Cse4^END L42D mutant, GST fusion (GST-TEV-Cse4^28-60(L42D)) (AGDQQSINDRALSLDQRTRATKNLFPRREERRR; not fully specified (N-terminus))
Okp1‐Ame1
  binding in GST pulldown: failed to bind

B1: FITC‐Cse4^28‐60 peptide (peptide, UniProt P36012 28-60, looked up)
peptide: AGDQQSINDRALSLLQRTRATKNLFPRREERRR
modifications: not fully specified (N-terminus); also: FITC label, position not given here
notes: Cse4, S. cerevisiae, residues 28-60; also called FITC‐Cse4^END; FITC‐labeled Cse4^END peptide; source: synthetic peptide (Tufts University Core Facility)
[2]
  Kd: 133 nM
[3]
  Kd: ~750 nM
[4]
  Kd: 152 nM
[5]
  Kd: > 3000 nM
[6]
  Kd: > 3000 nM

B2: Cse4^28‐60 peptide (Cse4^END peptide) (peptide, UniProt P36012 28-60, looked up)
peptide: AGDQQSINDRALSLLQRTRATKNLFPRREERRR
notes: Cse4, S. cerevisiae, residues 28-60 (residues 34-46 ordered in the crystal); also called minimal Cse4^END peptide; source: synthetic peptide (Tufts University Core facility)
Okp1^125‐275
  binding result: binds
[7]
  binding result: binds
Ame1^124‐231
  binding result: binds

B3: GST‐Cse4^END (GST fusion of Cse4 residues 28–60) (domain or fragment, S. cerevisiae, UniProt P36012 28-60, looked up)
chain: AGDQQSINDRALSLLQRTRATKNLFPRREERRR
notes: Cse4, centromeric histone H3 variant of S. cerevisiae, Essential N-terminal Domain, residues 28-60; The GST tag is TEV-cleavable (pLIC vector) but was kept for the pull-downs; also called GST‐Cse4^28‐60; source: E. coli Rosetta 2 (pLysS), purified (glutathione agarose); not shown: GST, N-terminal, kept
[8]
  binding result: binds
[9]
  binding result: binds
[10]
  binding result: binds
[11]
  binding result: binds
